Data on 3 substances can be found in US20150064134A1.

Some targets named below: AMPKα2(h) (human) (UniProt P54646); CDK2/cyclinA(h) (human) (UniProt P24941); CK2(h) (human) (UniProt P68400); PRK2(h) (human) (UniProt Q16513); PKCγ(h) (human) (UniProt P05129); PKCε(h) (human) (UniProt Q02156); EphA7(h) (human) (UniProt Q15375); MARK1(h) (human) (UniProt Q9P0L2); ZAP-70(h) (human) (UniProt P43403); RIPK2(h) (human) (UniProt O43353); Fer(h) (human) (UniProt P16591); PKBβ(h) (human) (UniProt P31751); CLK3(h) (human) (UniProt P49761).

Common to all, as to assay: cell-based or functional assay
The target of a further test is T1, NEK2(h) (human) (UniProt P51955).
T1 sequence (looked up): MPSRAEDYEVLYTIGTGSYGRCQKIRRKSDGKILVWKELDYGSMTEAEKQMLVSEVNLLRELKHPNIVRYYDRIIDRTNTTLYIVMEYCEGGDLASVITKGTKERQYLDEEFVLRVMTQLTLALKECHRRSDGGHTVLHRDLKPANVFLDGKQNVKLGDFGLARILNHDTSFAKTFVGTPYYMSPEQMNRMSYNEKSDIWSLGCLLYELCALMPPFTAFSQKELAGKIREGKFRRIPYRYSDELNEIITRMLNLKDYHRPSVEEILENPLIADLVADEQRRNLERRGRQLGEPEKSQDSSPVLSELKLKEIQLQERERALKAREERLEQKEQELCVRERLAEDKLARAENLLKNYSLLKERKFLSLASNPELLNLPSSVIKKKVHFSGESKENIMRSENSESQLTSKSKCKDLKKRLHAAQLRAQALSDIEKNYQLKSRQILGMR

A further test has as its target T2, TBK1(h) (human) (UniProt Q9UHD2).
T2 sequence (looked up): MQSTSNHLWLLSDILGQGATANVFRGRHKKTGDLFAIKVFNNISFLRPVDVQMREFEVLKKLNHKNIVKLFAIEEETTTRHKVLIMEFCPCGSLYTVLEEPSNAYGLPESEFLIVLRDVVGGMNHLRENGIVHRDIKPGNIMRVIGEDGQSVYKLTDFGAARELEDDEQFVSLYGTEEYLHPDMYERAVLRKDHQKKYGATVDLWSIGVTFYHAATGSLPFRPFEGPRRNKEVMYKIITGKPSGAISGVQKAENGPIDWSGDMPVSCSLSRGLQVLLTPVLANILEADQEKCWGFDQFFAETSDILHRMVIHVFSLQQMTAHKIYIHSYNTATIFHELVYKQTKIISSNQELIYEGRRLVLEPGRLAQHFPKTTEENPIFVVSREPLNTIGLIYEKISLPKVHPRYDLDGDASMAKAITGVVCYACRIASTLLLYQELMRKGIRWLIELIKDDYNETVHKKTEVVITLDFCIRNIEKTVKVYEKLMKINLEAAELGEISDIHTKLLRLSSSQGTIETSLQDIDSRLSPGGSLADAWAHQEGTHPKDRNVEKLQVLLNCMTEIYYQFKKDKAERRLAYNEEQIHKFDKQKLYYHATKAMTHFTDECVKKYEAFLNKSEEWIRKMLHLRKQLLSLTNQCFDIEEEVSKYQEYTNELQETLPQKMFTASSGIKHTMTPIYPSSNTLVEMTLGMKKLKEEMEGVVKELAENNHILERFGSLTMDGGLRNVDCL

In another test the target is T3, ULK3(h) (human) (UniProt Q6PHR2).
T3 sequence (looked up): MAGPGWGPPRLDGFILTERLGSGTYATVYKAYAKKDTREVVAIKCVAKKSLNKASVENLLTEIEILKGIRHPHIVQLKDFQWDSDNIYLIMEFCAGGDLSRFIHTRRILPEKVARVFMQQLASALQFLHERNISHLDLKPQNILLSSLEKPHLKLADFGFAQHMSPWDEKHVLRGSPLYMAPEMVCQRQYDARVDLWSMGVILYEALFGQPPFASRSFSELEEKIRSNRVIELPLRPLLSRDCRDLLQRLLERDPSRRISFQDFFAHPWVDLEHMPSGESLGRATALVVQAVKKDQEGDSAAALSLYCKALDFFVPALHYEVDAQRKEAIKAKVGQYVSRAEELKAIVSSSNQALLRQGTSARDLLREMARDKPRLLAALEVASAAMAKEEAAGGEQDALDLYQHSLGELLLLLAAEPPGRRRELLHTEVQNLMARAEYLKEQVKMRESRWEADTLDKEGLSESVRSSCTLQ

In another test the target is T4, SGK2(h) (human) (UniProt Q9HBY8).
T4 sequence (looked up): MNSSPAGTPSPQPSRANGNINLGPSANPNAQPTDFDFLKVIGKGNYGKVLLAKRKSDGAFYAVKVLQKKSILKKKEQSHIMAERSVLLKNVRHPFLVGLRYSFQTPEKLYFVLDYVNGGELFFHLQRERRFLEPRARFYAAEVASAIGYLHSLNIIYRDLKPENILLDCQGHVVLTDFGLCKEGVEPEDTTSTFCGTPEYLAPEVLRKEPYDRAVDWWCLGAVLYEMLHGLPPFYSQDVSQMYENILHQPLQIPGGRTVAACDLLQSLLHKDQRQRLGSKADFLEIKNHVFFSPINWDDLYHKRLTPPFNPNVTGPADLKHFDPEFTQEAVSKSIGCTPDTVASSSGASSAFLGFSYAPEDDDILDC

Sequence of RIPK2(h) (human) (O43353 1-299 limits assumed): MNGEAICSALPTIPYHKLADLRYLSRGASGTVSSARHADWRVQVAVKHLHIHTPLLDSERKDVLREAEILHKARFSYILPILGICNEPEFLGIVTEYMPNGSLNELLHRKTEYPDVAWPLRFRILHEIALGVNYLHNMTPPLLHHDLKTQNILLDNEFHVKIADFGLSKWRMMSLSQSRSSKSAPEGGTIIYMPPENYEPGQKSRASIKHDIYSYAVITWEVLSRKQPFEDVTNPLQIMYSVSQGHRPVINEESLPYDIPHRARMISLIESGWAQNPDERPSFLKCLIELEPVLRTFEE
Sequence of ZAP-70(h) (human) (P43403 whole entry): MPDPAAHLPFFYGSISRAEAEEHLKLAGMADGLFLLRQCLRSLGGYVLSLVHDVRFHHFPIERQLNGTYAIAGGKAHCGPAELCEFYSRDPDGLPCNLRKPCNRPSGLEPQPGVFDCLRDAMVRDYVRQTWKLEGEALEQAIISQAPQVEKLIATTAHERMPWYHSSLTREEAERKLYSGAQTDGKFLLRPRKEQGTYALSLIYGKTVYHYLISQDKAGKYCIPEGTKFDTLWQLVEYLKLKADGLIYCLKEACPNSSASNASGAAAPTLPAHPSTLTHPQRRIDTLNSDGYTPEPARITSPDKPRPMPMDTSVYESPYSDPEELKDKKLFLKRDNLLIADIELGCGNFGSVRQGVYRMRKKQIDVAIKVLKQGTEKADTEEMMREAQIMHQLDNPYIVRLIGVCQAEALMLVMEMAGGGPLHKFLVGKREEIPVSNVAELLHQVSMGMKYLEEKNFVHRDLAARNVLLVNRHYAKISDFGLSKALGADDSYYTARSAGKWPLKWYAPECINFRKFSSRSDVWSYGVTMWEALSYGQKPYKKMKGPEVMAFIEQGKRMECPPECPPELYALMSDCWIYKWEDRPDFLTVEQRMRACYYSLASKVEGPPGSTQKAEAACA
Sequence of PKBβ(h) (human) (P31751 whole entry): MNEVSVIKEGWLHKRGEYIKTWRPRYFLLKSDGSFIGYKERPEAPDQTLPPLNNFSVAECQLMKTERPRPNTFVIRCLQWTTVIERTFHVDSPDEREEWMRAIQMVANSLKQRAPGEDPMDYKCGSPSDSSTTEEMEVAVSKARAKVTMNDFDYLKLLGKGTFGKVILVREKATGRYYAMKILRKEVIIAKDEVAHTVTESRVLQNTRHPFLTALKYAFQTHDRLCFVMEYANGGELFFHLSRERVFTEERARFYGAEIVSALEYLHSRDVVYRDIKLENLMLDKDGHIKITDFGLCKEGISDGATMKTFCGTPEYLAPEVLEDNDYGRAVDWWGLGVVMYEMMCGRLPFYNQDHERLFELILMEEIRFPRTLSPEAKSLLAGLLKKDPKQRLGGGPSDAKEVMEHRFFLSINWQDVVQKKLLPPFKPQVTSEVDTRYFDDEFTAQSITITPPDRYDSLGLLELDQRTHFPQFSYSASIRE

On to MMI-0500 (peptide), for which the % activity at 100 µM with AMPKα2(h) (human) stood at 9%; in the test with CDK2/cyclinA(h) (human), 87%; with CK2(h) (human), 93%; with NEK2(h) (human) it was 0%; with PRK2(h) (human) it was 7%; with PKCγ(h) (human) it was 6%. In addition, the % activity at 100 µM in the test with PKCε(h) (human) came to 23%; with EphA7(h) (human), 189%; in the test with TBK1(h) (human), 16%; in the test with ULK3(h) (human), 177%; with MARK1(h) (human), 110%; in the test with ZAP-70(h) (human) it was 1%. The % activity at 100 µM was 30% with RIPK2(h) (human); 196% in the test with Fer(h) (human); 21% with PKBβ(h) (human); -1% with SGK2(h) (human); 76% with CLK3(h) (human).

Regarding MMI-0300 (peptide), the % activity at 100 µM with AMPKα2(h) (human) was 54%; with CDK2/cyclinA(h) (human), 86%; in the test with CK2(h) (human) it was 90%; with NEK2(h) (human), 78%; with PRK2(h) (human), 33%; with PKCγ(h) (human), 89%. Moreover, the % activity at 100 µM was found to be 79% in the test with PKCε(h) (human); 159% in the test with EphA7(h) (human); 37% with TBK1(h) (human); 167% with ULK3(h) (human); 132% with MARK1(h) (human); 75% with ZAP-70(h) (human). Moreover, the % activity at 100 µM was found to be 97% with RIPK2(h) (human); 130% with Fer(h) (human); 84% with PKBβ(h) (human); 56% with SGK2(h) (human); 61% with CLK3(h) (human).

With MMI-0400 (peptide), the % activity at 100 µM is 58% with AMPKα2(h) (human); 92% with CDK2/cyclinA(h) (human); 101% with CK2(h) (human); 61% in the test with NEK2(h) (human); 27% with PRK2(h) (human); 79% in the test with PKCγ(h) (human). In addition, the % activity at 100 µM was found to be 59% in the test with PKCε(h) (human); 222% with EphA7(h) (human); 39% with TBK1(h) (human); 147% with ULK3(h) (human); 120% with MARK1(h) (human); 33% in the test with ZAP-70(h) (human). The % activity at 100 µM stood at 98% in the test with RIPK2(h) (human); 108% with Fer(h) (human); 98% with PKBβ(h) (human); 98% in the test with SGK2(h) (human); 84% with CLK3(h) (human).
